From patent US20200392227A1 (LYVGEN BIOPHARMA, published 2020)

T1: human FcγRIIC expressed on CHO cells (human, UniProt P31995 43-323)
T1 construct: whole, on cells
T1 sequence (looked up): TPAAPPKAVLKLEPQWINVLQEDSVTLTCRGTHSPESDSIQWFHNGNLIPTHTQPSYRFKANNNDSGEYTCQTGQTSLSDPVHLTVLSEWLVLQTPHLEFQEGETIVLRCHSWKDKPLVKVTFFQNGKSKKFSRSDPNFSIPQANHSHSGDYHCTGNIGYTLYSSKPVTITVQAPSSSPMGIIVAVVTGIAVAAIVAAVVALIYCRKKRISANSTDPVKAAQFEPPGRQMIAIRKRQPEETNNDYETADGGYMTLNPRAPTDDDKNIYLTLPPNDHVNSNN

T2: human FcRIIA protein (MednaBio, E1033) (human, UniProt P12318 34-218, limits assumed)
T2 construct: Bought; also called FcγRIIA
T2 sequence (looked up): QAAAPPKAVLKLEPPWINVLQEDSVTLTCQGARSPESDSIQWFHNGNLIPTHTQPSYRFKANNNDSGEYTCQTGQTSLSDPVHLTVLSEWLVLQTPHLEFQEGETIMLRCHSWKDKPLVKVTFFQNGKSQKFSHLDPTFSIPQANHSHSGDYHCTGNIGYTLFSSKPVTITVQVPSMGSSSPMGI

T3: human FcRIIB/C protein (MednaBio, E1034) (human, UniProt P31994 43-217, limits assumed)
T3 construct: Bought as FcRIIB/C; also called FcγRIIB; CD32B
T3 sequence (looked up): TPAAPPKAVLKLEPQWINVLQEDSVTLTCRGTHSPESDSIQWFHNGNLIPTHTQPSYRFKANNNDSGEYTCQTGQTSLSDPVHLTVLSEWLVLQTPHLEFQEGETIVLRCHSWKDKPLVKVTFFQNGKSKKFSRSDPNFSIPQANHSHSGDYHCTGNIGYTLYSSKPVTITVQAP

B1: anti-CD137 IgG2 with Fc variant G2m7 (antibody)
heavy: EVQLVQSGAEVKKPGESLRISCKGSGYSFSTYWISWVRQMPGKGLEWMGKIYPGDSYTNYSPSFQGQVTISADKSISTAYLQWSSLKASDTAMYYCARGYGIFDYWGQGTLVTVSSASTKGPSVFPLAPCSRSTSESTAALGCLVKDYFPEPVTVSWNSGALTSGVHTFPAVLQSSGLYSLSSVVTVPSSNFGTQTYTCNVDHKPSNTKVDKTVERKCCVECPPCPAPPVAGPSVFLFPPKPKDTLMISRTPEVTCVVVDVEHEDPEVQFNWYVDGVEVHNAKTKPREEQFNSTFRVVSVLTVVHQDWLNGKEYKCKVSNKGLPAPIEKTISKTKGQPREPQVYTLPPSREEMTKNQVSLTCLVKGFYPSDIAVEWESNGQPENNYKTTPPMLDSDGSFFLYSKLTVDKSRWQQGNVFSCSVMHEALHNHYTQKSLSLSPGK
light: SYELTQPPSVSVSPGQTASITCSGDNIGDQYAHWYQQKPGQSPVLVIYQDKNRPSGIPERFSGSNSGNTATLTISGTQAMDEADYYCATYTGFGSLAVFGGGTKLTVLGQPKAAPSVTLFPPSSEELQANKATLVCLISDFYPGAVTVAWKADSSPVKAGVETTTPSKQSNNKYAASSYLSLTPEQWKSHRSYSCQVTHEGSTVEKTVAPTECS
notes: copies: 2 + 2
B2: anti-CD137 IgG2 with Fc variant G2m9 (antibody)
heavy: EVQLVQSGAEVKKPGESLRISCKGSGYSFSTYWISWVRQMPGKGLEWMGKIYPGDSYTNYSPSFQGQVTISADKSISTAYLQWSSLKASDTAMYYCARGYGIFDYWGQGTLVTVSSASTKGPSVFPLAPCSRSTSESTAALGCLVKDYFPEPVTVSWNSGALTSGVHTFPAVLQSSGLYSLSSVVTVPSSNFGTQTYTCNVDHKPSNTKVDKTVERKCCVECPPCPAPPVAGPSVFLFPPKPKDTLMISRTPEVTCVVVDVEHEDPEVQFNWYVDGVEVHNAKTKPREEQFNSTFRVVSVLTVVHQDWLNGKEYKCKVSNKGFPAPIEKTISKTKGQPREPQVYTLPPSREEMTKNQVSLTCLVKGFYPSDIAVEWESNGQPENNYKTTPPMLDSDGSFFLYSKLTVDKSRWQQGNVFSCSVMHEALHNHYTQKSLSLSPGK
light: SYELTQPPSVSVSPGQTASITCSGDNIGDQYAHWYQQKPGQSPVLVIYQDKNRPSGIPERFSGSNSGNTATLTISGTQAMDEADYYCATYTGFGSLAVFGGGTKLTVLGQPKAAPSVTLFPPSSEELQANKATLVCLISDFYPGAVTVAWKADSSPVKAGVETTTPSKQSNNKYAASSYLSLTPEQWKSHRSYSCQVTHEGSTVEKTVAPTECS
notes: copies: 2 + 2
B3: anti-CD137 IgG2 with Fc variant G2m8 (antibody)
heavy: EVQLVQSGAEVKKPGESLRISCKGSGYSFSTYWISWVRQMPGKGLEWMGKIYPGDSYTNYSPSFQGQVTISADKSISTAYLQWSSLKASDTAMYYCARGYGIFDYWGQGTLVTVSSASTKGPSVFPLAPCSRSTSESTAALGCLVKDYFPEPVTVSWNSGALTSGVHTFPAVLQSSGLYSLSSVVTVPSSNFGTQTYTCNVDHKPSNTKVDKTVERKCCVECPPCPAPPVAGPSVFLFPPKPKDTLMISRTPEVTCVVVDVSHEDPEVQFNWYVDGVEVHNAKTKPREEQFNSTFRVVSVLTVVHQDWLNGKEYKCKVSNKGFPAPIEKTISKTKGQPREPQVYTLPPSREEMTKNQVSLTCLVKGFYPSDIAVEWESNGQPENNYKTTPPMLDSDGSFFLYSKLTVDKSRWQQGNVFSCSVMHEALHNHYTQKSLSLSPGK
light: SYELTQPPSVSVSPGQTASITCSGDNIGDQYAHWYQQKPGQSPVLVIYQDKNRPSGIPERFSGSNSGNTATLTISGTQAMDEADYYCATYTGFGSLAVFGGGTKLTVLGQPKAAPSVTLFPPSSEELQANKATLVCLISDFYPGAVTVAWKADSSPVKAGVETTTPSKQSNNKYAASSYLSLTPEQWKSHRSYSCQVTHEGSTVEKTVAPTECS
notes: copies: 2 + 2

What was measured:
[1] = biological target: T4, human FcγRI expressed on CHO cells (human, UniProt P12314 16-374); test: FACS, CHO cells expressing FcγRI
T4 construct: whole, on cells
Protocol: For FACS analysis of the IgG mutants' binding to different FcγRs, FcγR overexpressing CHO cells were harvested using trypsin-EDTA and were suspended in cold staining buffer (3% BSA in PBS). Test IgG mutants, which were diluted in staining buffer, were added into the cells. The mixture was incubated 4° C. for 2 hours, and then washed twice with cold staining buffer and re-suspended in PE-labeled anti-human IgG followed by incubation at 4° C. for 2 hours. The mixture was washed twice with staining buffer and re-suspended in 2% PFA in PBS for FACS.

[2] = biological target: T1, human FcγRIIC expressed on CHO cells; test: FACS, CHO cells expressing FcγRIIC
[3] = biological target: T5, human FcRIIIA-F158 protein (MednaBio, E1036) (human, UniProt P08637 17-208); test: BLI
T5 construct: Bought; also called FcγRIIIA(F)
In short: (§1)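 Binding was measured by biolayer interferometry on an Octet Red96 System. Commercial human Fc receptor proteins were loaded at 20 μg/mL onto anti-penta-HIS biosensors, which were then dipped into an 8-point 1:3 dilution series of test IgG starting at 300 nM in PBS with 0.1% BSA and 0.02% Tween-20, at pH 7.2 for Fcγ receptors and pH 6 for FcRn. Kd, kon and koff were obtained by global fitting, with data fitted to a 1:1 binding model.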

[4] = biological target: T6, human FcRn protein (MednaBio, E1032) (human, UniProt P55899 24-297; P61769 21-119); test: BLI
T6 construct: Bought; assays at pH 6
In short: as §1

[5] = biological target: T7, human FcRIIIA-V158 protein (MednaBio, E1035) (human, UniProt P08637 17-208); test: BLI
T7 construct: Bought; also called FcγRIIIA(V); FcgRIIIA(V)
In short: as §1

[6] = biological target: T2, human FcRIIA protein (MednaBio, E1033); test: BLI
In short: as §1

[7] = biological target: T8, human FcRIIIB protein (MednaBio, E1037) (human, UniProt O75015 17-200); test: BLI
T8 construct: Bought; also called FcγRIIIB; FcgRIIIB
In short: as §1

[8] = biological target: T9, human FcRI protein (MednaBio, E1031) (human, UniProt P12314 16-288, limits assumed); test: BLI
T9 construct: Bought; loaded on anti-penta-HIS biosensors; also called FcγRI
In short: as §1

[9] = biological target: T3, human FcRIIB/C protein (MednaBio, E1034); test: BLI
In short: as §1

T7 sequence (P08637 17-208 F176V): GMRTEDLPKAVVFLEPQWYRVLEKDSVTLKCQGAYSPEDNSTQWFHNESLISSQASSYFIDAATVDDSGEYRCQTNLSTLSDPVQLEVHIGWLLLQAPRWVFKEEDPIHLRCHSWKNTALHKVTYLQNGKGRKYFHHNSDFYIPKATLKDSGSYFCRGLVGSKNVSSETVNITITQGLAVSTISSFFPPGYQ
T5 sequence (P08637 17-208 limits assumed): as the sequence (P08637 17-208 F176V) above, with V160F counted along it
T8 sequence (O75015 17-200 limits assumed): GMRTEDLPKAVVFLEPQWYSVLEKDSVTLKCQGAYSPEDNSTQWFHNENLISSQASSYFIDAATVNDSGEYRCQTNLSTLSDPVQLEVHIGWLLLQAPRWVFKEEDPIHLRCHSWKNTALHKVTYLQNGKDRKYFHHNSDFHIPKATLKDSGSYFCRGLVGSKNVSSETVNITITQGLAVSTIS
T9 sequence (P12314 16-288 limits assumed): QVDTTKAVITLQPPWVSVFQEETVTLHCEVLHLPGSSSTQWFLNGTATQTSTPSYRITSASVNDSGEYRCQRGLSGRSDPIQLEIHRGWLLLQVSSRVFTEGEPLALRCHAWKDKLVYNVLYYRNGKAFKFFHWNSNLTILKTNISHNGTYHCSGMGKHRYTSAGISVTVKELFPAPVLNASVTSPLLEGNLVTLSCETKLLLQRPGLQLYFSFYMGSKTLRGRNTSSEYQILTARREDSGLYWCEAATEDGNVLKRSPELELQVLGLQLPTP
T6 sequence (P55899 24-297 limits assumed, form in doubt, chain 1 of 2): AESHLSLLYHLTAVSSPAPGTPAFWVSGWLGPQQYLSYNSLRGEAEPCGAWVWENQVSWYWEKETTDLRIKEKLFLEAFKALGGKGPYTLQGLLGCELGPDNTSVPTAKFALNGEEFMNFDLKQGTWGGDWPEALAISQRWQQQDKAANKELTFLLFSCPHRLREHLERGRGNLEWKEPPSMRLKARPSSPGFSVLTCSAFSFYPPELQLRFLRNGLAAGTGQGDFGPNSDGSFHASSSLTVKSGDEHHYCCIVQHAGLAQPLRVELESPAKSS
T6 sequence (P61769 21-119 limits assumed, form in doubt, chain 2 of 2): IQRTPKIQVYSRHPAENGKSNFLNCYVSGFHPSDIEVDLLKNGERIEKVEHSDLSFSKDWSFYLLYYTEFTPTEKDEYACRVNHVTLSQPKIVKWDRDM
T4 sequence (P12314 16-374): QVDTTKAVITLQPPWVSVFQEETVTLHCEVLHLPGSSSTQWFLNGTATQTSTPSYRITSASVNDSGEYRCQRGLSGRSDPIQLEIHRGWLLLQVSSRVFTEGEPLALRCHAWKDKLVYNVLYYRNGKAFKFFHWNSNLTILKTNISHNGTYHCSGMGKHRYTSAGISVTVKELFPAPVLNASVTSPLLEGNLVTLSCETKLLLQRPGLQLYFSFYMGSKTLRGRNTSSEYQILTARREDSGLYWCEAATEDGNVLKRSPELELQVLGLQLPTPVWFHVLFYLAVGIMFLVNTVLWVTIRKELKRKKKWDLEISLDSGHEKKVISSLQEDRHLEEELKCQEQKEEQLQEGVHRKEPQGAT

Binder	binding result [1]	binding result [2]	binding result [3]	Kd [4] [nM]	koff [4] [s⁻¹]	kon [4] [M⁻¹ s⁻¹]	binding result [5]	Kd [6] [nM]	koff [6] [s⁻¹]	kon [6] [M⁻¹ s⁻¹]	binding result [7]	binding result [8]	Kd [9] [nM]	koff [9] [s⁻¹]	kon [9] [M⁻¹ s⁻¹]
B1	no binding (tested: 10 ug/ml)	binds	no binding (tested: 300 nM)	5.7	0.0052	910000	no binding (tested: 300 nM)	120	0.028	230000	no binding (tested: 300 nM)	no binding (tested: 300 nM)	170	0.052	310000
B2	–	binds	no binding (tested: 300 nM)	22	0.0058	270000	no binding (tested: 300 nM)	280	0.03	110000	no binding (tested: 300 nM)	no binding (tested: 300 nM)	52	0.005	97000
B3	no binding (tested: 10 ug/ml)	–	no binding (tested: 300 nM)	6.3	0.0053	850000	no binding (tested: 300 nM)	93	0.092	990000	no binding (tested: 300 nM)	no binding (tested: 300 nM)	500	0.26	510000
